Test [1] has as its target recombinant mouse CD47 and CD40 (Mus musculus, UniProt P27512+Q61735). Description: Dual functional ELISA of the murine surrogate. The format is binding. (An ELISA detects its analyte on a solid surface through an enzyme-linked reagent.)
Another test deals with T1, murine CD40 (Mus musculus, UniProt P27512).
T1 construct: expressed in transfected cells; host or cells: CHO-K1
Description: Murine CD40/NFκB-luciferase reporter in CHOK1 cells. The format is cell-based. The protocol: Cells were cultured with a dose titration of recombinant human CD40L-his or SIRPα-Fc-CD40L, and luminescence was read on a luminometer after 6 hours. The left histograms are (−) Control, middle histograms are hCD40L-His and the right histograms are SIRPα-Fc-CD40L. […] CD8-depleted PBMC from 33-50 distinct human donors were cultured with media only, the neoantigen positive control KLH, the clinical stage non-activating control Exenatide, or 0.3, 3, 30, or 300 nM of SIRPα-Fc-CD40L. At 10 μg/ml on the X-axis, the samples are, top to bottom: hCD40L-Fc, SIRPα-Fc-CD40L, ahCD40 (HB14) ad (−) Control. […] The left histograms are (−) control, second from left are FC-mCD40L, second from right are anti-mCD40 (FGK4.5) and right are mSIRPα-Fc-CD40L.
The murine version of the CD40/NFκB-luciferase system was established in CHOK1 cells.

The test system of the next test is A20 lymphoma. Description: Murine phagocytosis assay, BMDMs with A20 lymphoma cells. The format is cell-based.
The next test relates to WEHI3 leukemia cells. Description: Murine phagocytosis assay, BMDMs with WEHI3 leukemia cells. The format is cell-based.
A further test deals with splenic dendritic cells. Description: In vivo splenic dendritic cell activation. Also noted: species or system mice. The note with it: single IV dose; 6 or 24 hours, especially the 24 hour time point. As for the experimental part:
For each panel, the samples are (left to right): untreated, sheep RBCs, αCD47 (MIAP301), αSIRPα (P84), mSIRPα-Fc-CD40L, mSIRPα-Fc-CD40L (24 Hrs), and αCD47 (MIAP301) (24 hrs). FIG. 9B is a quantitation of in vivo dendritic cell activation corresponding to FIG. 9A. Shown is the absolute percent of CD4+ and CD8+ dendritic cells; also gated on CD11c and DC1R2. In FIG. 9B, for each panel, the samples are (left to right): untreated, sheep RBCs, αCD47 (MIAP301), αSIRPα (P84), SIRPα-Fc-CD40L (150 μg), SIRPα-Fc-CD40L (300 μg), SIRPα-Fc-CD40L (300 μg) (24 Hrs), and αCD47 (MIAP301) (24 hrs).
An in vivo assay to examine SIRPα/CD47 function in mice was describe in Yi et al., “Splenic Dendritic Cells Survey Red Blood Cells for Missing Self-CD47 to Trigger Adaptive Immune Responses. Immunity. 2015;43(4):764-75) (the contents of which is incorporated by reference in its entirety). This assay detects the activation status of splenic dendritic cells in response to SIRPa/CD47 inhibitors or to infused sheep red blood cells (RBC).
After 6 or 24 hours, mice were euthanized and their spleens excised, dissociated, and assessed by flow cytometry for populations of activated CD4+ dendritic cells (DCs) (FIG. 9A, left panel) or CD8+dendritic cells (FIG. 9A, right panel); both populations of dendritic cells were also positive for MHC II (I-Ab), CD11c, and DC1R2.

For another test, the system named is CT26 tumors. Description: Syngeneic CT26 colon tumor model versus CD40/CD47 antibodies (Example 11). The format is in vivo, mice. As for the experimental part: FIG. 20C: a similar CT26 experiment was initiated as described in FIG. 20A above, however mice were pre-treated on days −1, 1, and 10 with IP injections of 100 μg of either or both CD4/CD8 depleting antibodies. Mice were inoculated with CT26 tumors on day 0 and treated at a later starting date than FIG. 20A with mSIRPα-Fc-CD40L ARC on days 7, 9, and 11. […] In FIG. 20D and FIG. 20E, BALB/C mice were inoculated with WEHI3 tumors (FIG. 20D) or A20 tumors (FIG. 20E) subcutaneously on the rear flank, and then treated via IP injection with anti-CD20 or mSIRPα-Fc-CD40L on days 7, 9, and 11 (WEHI3) or days 10, 12, and 14 (A20); when tumors were established and reached approximately 57-60 mm^3. A cohort of mice were pre-treated with an interferon alpha receptor 1 (IFNAR1) blocking antibody ([…] by IP injection) on days -1, 1, and 10 (WEHI3) or on days −1, 1, and 13 (A20). FIG. 20F to FIG. 20H are graphs showing blockade of CD4, CD8, and IFNAR1. Peripheral blood analysis by flow cytometry of CD4 (FIG. 20F), CD8 (FIG. 20G), and IFNAR1 (FIG. 20H) depletion following depleting antibody treatment corresponding to FIG. 20C to FIG. 20E. Samples were normalized to untreated animals.
Implanted CT26 tumors were allowed to grow to ˜30 mm^3 before treatment was initiated with a fixed regimen of two doses of either a CD40 agonist antibody (clone FGK4.5), a CD47 blocking antibody (clone MIAP301), a combination of the two antibodies, or the murine SIRPα-Fc-CD40L chimeric protein. […] Based on this observation, these experiments were repeated in the setting of antibody-mediated depletion of both CD4+ and CD8+ cells (FIG. 20C).
CD4 and CD8 depletion was verified in the peripheral blood at multiple time points during the experiment (see, FIG. 20F and FIG. 20G).

Test [2] relates to peripheral blood cell populations. Briefly: Peripheral blood cell populations in treated mice. The format is in vivo. As for the experimental part: FIG. 22B is a graph showing RBCs and test agents that were incubated at 37° C. for 24 hours and then the media was assessed at OD490 for changes in absorbance due to hemoglobin being released from lysing RBCs. […] FIG. […] Cell populations were assessed by flow cytometry and included CD20+ B cells, CD110+, CD4+/CD11c+, and CD8+/CD11c+ dendritic cells.
Receptor occupancy was evaluated on circulating CD40+ lymphocytes.

T1 sequence (P27512 20-289): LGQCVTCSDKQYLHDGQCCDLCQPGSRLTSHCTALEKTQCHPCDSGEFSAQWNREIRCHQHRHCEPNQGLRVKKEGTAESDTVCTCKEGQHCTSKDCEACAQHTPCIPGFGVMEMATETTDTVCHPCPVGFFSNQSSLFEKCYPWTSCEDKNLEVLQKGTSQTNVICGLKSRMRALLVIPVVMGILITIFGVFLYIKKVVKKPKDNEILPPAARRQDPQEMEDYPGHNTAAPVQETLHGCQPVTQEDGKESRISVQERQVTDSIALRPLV

B1: mSIRPα-Fc-CD40L: Murine version of SIRPα-Fc-CD40L, made from murine proteins to assess activity in vivo (protein)
chain: KELKVTQPEKSVSVAAGDSTVLNCTLTSLLPVGPIRWYRGVGPSRLLIYSFAGEYVPRIRNVSDTTKRNNMDFSIRISNVTPADAGIYYCVKFQKGSSEPDTEIQSGGGTEVYVLAKPSPPEVSGPADRGIPDQKVNFTCKSHGFSPRNITLKWFKDGQELHPLETTVNPSGKNVSYNISSTVRVVLNSMDVNSKVICEVAHITLDRSPLRGIANLSNFIRVSPTVKVTQQSPTSMNQVNLTCRAERFYPEDLQLIWLENGNVSRNDTPKNLTKNTDGTYNYTSLFLVNSSAHREDVVFTCQVKHDQQPAITRNHTVLGFAHSSDQGSMQTFPDNNATHNWNVPRDCGCKPCICTVPEVSSVFIFPPKPKDVLTITLTPKVTCVVVDISKDDPEVQFSWFVDDVEVHTAQTQPREEQFNSTFRSVSELPIMHQDWLNGKEFKCRVNSAAFPAPIEKTISKTKGRPKAPQVYTIPPPKEQMAKDKVSLTCMITDFFPEDITVEWQWNGQPAENYKNTQPIMNTNGSYFVYSKLNVQKSNWEAGNTFTCSVLHEGLHNHHTEKSLSHSPGKHRRLDKVEEEVNLHEDFVFIKKLKRCNKGEGSLSLLNCEEMRRQFEDLVKDITLNKEEKKENSFEMQRGDEDPQIAAHVVSEANSNAASVLQWAKKGYYTMKSNLVMLENGKQLTVKREGLYYVYTQVTFCSNREPSSQRPFIVGLWLKPSSGSERILLKAANTHSSSQLCEQQSVHLGGVFELQAGASVFVNVTEASQVIHRVGFSSFGLLKL
With B1, the “simultaneous binding to recombinant mouse CD47 and CD40” value in test [1] is reported as “simultaneous binding”. Also, in the test with murine CD40, the “activation of the NFκB pathway, murine CD40 reporter” value is recorded as “consistently stimulated potent activation of the NFκB pathway”. For the same molecule, in the test with A20 lymphoma, the phagocytic activity entry is “induced strong phagocytic activity” and the “phagocytosis index compared with CD47 blocking antibody” value is listed as “higher phagocytosis index than the CD47 blocking antibody”. Further, in the test with WEHI3 leukemia cells, the phagocytic activity result is recorded as “induced strong phagocytic activity” and the “phagocytosis index compared with CD47 blocking antibody” value was “higher phagocytosis index than the CD47 blocking antibody”. The “splenic CD4+ and CD8α+ DCs expressing high levels of MHCII, CD80, and CD86” value in the test on splenic dendritic cells was “greatly upregulated splenic CD4+ and CD8α+ DCs”. Besides, the “rejection of a secondary tumor challenge among mice that rejected the primary tumor” value in the test with CT26 tumors (no additional treatment) is recorded as 60%. Also, the “mice rejecting primary tumors” value in the test on CT26 tumors (two doses, treatment started at ˜30 mm^3) worked out at 62%. The “tumor growth / survival” value in the test with CT26 tumors (two doses, treatment started at ˜30 mm^3, versus vehicle controls) was “significant prolongation in tumor growth and survival”. Besides, the “overall CD45+ peripheral lymphocytes” value in test [2] (24 hours following a single IP injection (300 μg)) is “decrease in overall CD45+ peripheral lymphocytes”. Also, in test [2] (mice), the “CD8+ dendritic cells in peripheral blood” value is given as “significant increase in CD8+ dendritic cells” and the “CD40+ B cells in peripheral blood” value is given as “peripheral decrease in CD40+ B cells”.

The record behind these values is patent US20200071380A1, “COMBINATION THERAPIES COMPRISING SIRP ALPHA-BASED CHIMERIC PROTEINS” (Shattuck Labs, Inc., priority 2018, published 2020).
